From patent US20250042992A1 (University of California, published 2025)

B1: humanized anti-DLK1 antibody 04-0561-F1 (IgG1) (antibody, V domains shown)
VH: QVQLQESGPGLVKPSETLSLTCTVSGFSLSIYSVHWVRQPPGKGLEWIGLIWGGGSTDYNPSLKSRVTISKDTSKNQVSLKLSSVTAADTAVYYCARKEGNYLWFAYWGQGTLVTVSS
VL: DIVMTQSPDSLAVSLGERVTMNCKSSQSLLQSSNQKNYLAWYQQKPGQPPKLLVYFASTRESGVPDRFSGSGSGTDFTLTISSVQAEDVAVYYCQQHYSIPLTFGQGTKLEIKR
B2: humanized anti-DLK1 antibody 04-0547-h2 (IgG1) (antibody, V domains shown)
VH: EVQLVESGGGLVQPGGSLRLSCAASGFSISDYYMAWVRQAPGKGLEWVANINYDGTNTYYADSVKGRFTISRDNSKNTLYLQMNSLRAEDTAVYYCVRSYYYYGMEYWGQGTTVTVSS
VL: DIQMTQSPSSLSASVGDRVTITCRASHDVSTAVAWYQQKPGKAPKLLIYSASYRYTGVPSRFSGSGSGTDFTLTISSLQPEDFATYYCQQHYRIPLTFGQGTKLEIK
notes: human kappa (P01834) and human IgG1 (P01857) constant regions

Tests used:
[1] = biological target: T1, mouse DLK1 fused to mGFP, overexpressed on HEK293T cells (mouse, UniProt Q09163 24-385); assay: flow cytometry, row HEK293T Mouse DLK1mGFP mass
T1 construct: not shown: mGFP fluorescent protein fused to DLK1
T1 sequence: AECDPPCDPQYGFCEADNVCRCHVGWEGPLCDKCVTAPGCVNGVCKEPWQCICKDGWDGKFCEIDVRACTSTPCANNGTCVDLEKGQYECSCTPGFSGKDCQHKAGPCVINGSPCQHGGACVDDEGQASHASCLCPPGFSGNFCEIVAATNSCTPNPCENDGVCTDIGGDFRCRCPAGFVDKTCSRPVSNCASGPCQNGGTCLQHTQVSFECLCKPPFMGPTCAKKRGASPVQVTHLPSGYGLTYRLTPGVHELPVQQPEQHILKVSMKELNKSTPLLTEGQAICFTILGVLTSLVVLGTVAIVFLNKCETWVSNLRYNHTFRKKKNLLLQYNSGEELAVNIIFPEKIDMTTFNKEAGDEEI

[2] = biological target: T2, DLK1 ECD-mFc long form (human DLK1-FL, isoform 1) (human, UniProt P80370 24-303); assay: ELISA, plate coated with long form of DLK1 ECD-mFc (isoform 1), anti-human IgG Fc-HRP, OD450nm
T2 construct: also called long form of the human DLK1 protein (ELISA coat); not shown: mFc (monomeric immunoglobulin Fc domain)
T2 sequence: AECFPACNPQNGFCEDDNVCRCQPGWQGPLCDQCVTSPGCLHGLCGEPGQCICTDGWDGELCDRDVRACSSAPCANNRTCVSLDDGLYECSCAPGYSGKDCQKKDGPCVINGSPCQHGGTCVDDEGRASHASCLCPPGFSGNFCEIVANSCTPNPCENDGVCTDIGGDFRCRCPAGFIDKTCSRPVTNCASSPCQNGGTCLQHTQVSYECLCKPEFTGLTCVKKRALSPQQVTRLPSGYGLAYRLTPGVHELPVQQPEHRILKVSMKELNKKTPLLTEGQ
Protocol: (§1) Plates were incubated with DLK1 Abs serially diluted 2-fold starting from 400 ng/ml in 5% BSA/PBS at RT for 1.5 hrs. Mouse anti-human IgG Fc secondary antibody conjugated to HRP (Novus catalog number: NBP1-78623H) at 1:3000 dilution was applied to each well at 50 μl/well and further incubated at RT for 1 hr. The ELISA was developed first with Thermo Scientific Pierce 1-Step™ Ultra TMB-ELISA substrate solution and then with addition of sulfuric acid stop solution. The ELISA plate was read on a plate reader at 450 nm.

[3] = biological target: T3, DLK1 ECD-mFc short form (human DLK1-MB, isoform 2) (human, UniProt P80370 24-228); assay: ELISA, plate coated with short form of DLK1 ECD-mFc (isoform 2), anti-human IgG Fc-HRP, OD450nm
T3 construct: also called short form of the human DLK1 protein (ELISA coat); not shown: mFc (monomeric immunoglobulin Fc domain)
T3 sequence: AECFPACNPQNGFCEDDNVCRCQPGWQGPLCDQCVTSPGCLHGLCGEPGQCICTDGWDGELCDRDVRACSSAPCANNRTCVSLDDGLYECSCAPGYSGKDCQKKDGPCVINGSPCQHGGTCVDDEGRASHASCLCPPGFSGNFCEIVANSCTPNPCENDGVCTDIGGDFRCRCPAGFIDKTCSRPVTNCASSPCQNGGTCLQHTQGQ
Protocol: as §1

[4] = biological target: human DLK1 endogenously expressed on COR-L279 small cell lung carcinoma cells (human) (UniProt P80370); assay: KinExA on cells, row CORL-279 cells(adherent)
[5] = biological target: T1, mouse DLK1 fused to mGFP, overexpressed …; assay: KinExA on cells, row HEK293T Mouse DLK1mGFP mass
[6] = biological target: T4, rat DLK1 fused to mGFP, overexpressed on HEK293T cells (rat, UniProt O70534 24-383); assay: KinExA on cells, row HEK293T Rat DLK1mGFP mass pop
T4 construct: whole, on cells; not shown: mGFP fluorescent protein fused to DLK1
T4 sequence (looked up): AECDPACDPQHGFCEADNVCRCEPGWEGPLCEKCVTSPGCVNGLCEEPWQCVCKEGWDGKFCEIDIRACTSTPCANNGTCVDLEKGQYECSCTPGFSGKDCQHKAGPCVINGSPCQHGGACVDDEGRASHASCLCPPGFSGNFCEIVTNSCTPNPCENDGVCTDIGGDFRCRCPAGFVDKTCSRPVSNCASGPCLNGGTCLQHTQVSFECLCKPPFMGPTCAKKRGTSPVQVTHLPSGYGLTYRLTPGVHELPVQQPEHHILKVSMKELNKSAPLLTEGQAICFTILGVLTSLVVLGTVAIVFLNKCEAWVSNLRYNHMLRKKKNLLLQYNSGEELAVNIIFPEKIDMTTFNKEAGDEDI

[7] = biological target: T5, human DLK1 long form (isoform 1, DLK1-FL) fused to mGFP, overexpressed on HEK293T cells (human, UniProt P80370 24-383); assay: KinExA on HEK293T DLK1mGFP Human Clone G06 cells detached by Versene; Error% 5.90; 95% CI not defined; equilibrium curves 400pM, 50nM
T5 construct: also called HEK293T DLK1 mGFP G06 (long form); DLK-FL; not shown: mGFP fluorescent protein fused to DLK1
T5 sequence: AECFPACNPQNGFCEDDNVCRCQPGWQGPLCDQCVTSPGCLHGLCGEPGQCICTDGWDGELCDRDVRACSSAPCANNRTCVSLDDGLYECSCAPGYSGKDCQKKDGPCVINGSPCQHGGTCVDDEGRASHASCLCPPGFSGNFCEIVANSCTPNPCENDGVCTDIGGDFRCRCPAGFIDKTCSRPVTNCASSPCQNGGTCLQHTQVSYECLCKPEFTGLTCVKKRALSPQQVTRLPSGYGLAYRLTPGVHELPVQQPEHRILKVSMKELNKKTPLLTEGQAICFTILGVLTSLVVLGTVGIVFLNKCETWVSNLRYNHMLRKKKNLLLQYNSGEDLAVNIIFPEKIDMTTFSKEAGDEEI

| Binder | binding result [1] | EC50 [2] | EC50 [3] | Kd [4] | Kd [5] | Kd [6] | Kd [7] |
| --- | --- | --- | --- | --- | --- | --- | --- |
| B1 | no binding (tested: 20µg/ml) | 0.87 nM | 0.81 nM |  |  |  |  |
| B2 |  |  |  | 8.2 nM | 13 nM | 5.96 nM | 5.34 nM |
